Data taken from patent US20250276077A1 (IMMUNOME, published 2025).
Values belong to the binder of their own block, whether it stands above or below them.

Columns and labels:
[1] = target: T1, Human EphA2 (ephrin receptor A2) on cells (human, UniProt P29317 25-976); assay: cell-based or functional assay
[2] = target: T1, Human EphA2 (ephrin receptor A2) on …; assay: flow cytometry, A549 cells
Description: (§1) Surface binding of the antibodies to in vitro grown cell lines was assessed by flow cytometry. Tumor cells were detached from their culture plate using Versene and counted. Cells were staining in BSA-containing buffer with primary antibody for 30 minutes at 4° C. with shaking. Following, cells were washed and stained with secondary PE-labeled antibody for 30 minutes at 4° C. with shaking. Before analysis on an Intellicyt iQue3 scanner, cells were counterstained with DAPI. MedFI values from live, single cells was expressed as fold over isotype control.

[3] = target: T1, Human EphA2 (ephrin receptor A2) on …; assay: cell-based or functional assay; remark: listed apart in the source
[4] = target: T1, Human EphA2 (ephrin receptor A2) on …; assay: cell-based or functional assay; remark: listed apart in the source
[5] = target: T1, Human EphA2 (ephrin receptor A2) on …; assay: flow cytometry on A549 cells
Description: as §1

T1 sequence (P29317 25-976): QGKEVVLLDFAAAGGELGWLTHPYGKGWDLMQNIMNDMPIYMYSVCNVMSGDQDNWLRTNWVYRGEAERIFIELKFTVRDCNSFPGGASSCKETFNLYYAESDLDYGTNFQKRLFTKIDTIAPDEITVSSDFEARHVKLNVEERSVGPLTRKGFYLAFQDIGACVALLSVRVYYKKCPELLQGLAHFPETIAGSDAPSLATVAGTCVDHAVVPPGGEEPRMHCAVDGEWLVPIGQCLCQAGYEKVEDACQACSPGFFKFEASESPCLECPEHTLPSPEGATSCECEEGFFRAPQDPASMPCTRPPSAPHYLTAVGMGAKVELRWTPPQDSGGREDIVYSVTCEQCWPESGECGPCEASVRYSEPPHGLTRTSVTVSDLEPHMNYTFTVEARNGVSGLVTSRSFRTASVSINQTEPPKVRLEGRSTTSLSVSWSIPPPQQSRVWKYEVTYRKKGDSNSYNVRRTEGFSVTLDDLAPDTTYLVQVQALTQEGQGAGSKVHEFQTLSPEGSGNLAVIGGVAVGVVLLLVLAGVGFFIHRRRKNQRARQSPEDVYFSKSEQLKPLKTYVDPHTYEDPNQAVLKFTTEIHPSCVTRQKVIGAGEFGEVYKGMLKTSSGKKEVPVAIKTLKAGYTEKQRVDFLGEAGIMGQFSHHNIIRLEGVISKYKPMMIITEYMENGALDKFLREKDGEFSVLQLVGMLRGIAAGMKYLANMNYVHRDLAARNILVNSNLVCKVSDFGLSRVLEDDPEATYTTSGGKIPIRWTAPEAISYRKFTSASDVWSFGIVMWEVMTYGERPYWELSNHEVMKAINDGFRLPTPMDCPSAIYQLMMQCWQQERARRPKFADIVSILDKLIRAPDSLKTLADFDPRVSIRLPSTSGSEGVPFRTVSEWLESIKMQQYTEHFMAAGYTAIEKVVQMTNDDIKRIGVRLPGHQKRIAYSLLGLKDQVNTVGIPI

ADCC EC50 [1]: 25.1 nM
B1: AB-010143 (antibody, mouse IgG2a, V domains shown)
VH: QVQLQQWGAGLLKPSETLSLTCAVYGGSFSDYYWSWIRQPPGKGLEWIGEVNHRGSINYNNYNPSLKSRVTISVDTSKNQFSLKLTSVTAADTAVYYCAKPLRPHCTNGVCYSGDAFDIWGQGTMVTVAS
VL: SYVLTQPPSVSVAPGQTARITCGGNNIGSKNVHWYQQKPGQAPVLVVYDDSDRPSGIPEQFSGSNSGNTATLTISRVEAGDEADYYCQVWDSSSDHVVFGGGTKLTVL

ADCC EC50 [1]: 79.4 nM
B2: AB-010147 (antibody, mouse IgG2a, V domains shown)
VH: QVQLQQWGAGLLKPSETLSLTCAVYGGSFSDYYWSWIRQPPGKGLEWIGEVNHRGSINYNNYNPSLKSRVTISVDTSKNQFSLKLTSVTAADTAVYYCAKPLRPHCTNGVCYSGDAFDIWGQGTMVTVAS
VL: SYVLTQPPSVSVAPGQTARITCGGNNIGSKNVHWYQQKPGQAPVLVVYDDSDRPSGIPERFSGSNSGNTATLTISRVEAGDEADYYCQVWDSSSDHLVFGGGTKLTVL

ADCC EC50 [1]: 48.9 nM
B3: AB-010145 (antibody, mouse IgG2a, V domains shown)
VH: QVQLQQWGAGLLKPSETLSLTCAVYGGSFSDYYWSWIRQPPGKGLEWIGEVNHRGSINYNNYNPSLKSRVTISVDTSKNQFSLKLSSVTAADTAVYYCAKPLRPHCTNGVCYSGDAFDIWGQGTMVTVAS
VL: SYVLTQPPSVSVAPGQTARITCGGNNIGSKNVHWYQQKPGQAPVLVVYDDSDRPSGIPEQFSGSNSGNTATLTISRVEAGDEADYYCQVWDSSSDHLVFGGGTKLTVL

ADCC EC50 [1]: 66.8 nM
B4: AB-010146 (antibody, mouse IgG2a, V domains shown)
VH: QVQLQQWGAGLLKPSETLSLTCAVYGGSFSDYYWSWIRQPPGKGLEWIGEVNHRGSINYNNYNPSLKSRVTISVDTSKNQFSLKLTSVTAADTAVYYCAKPLRPHCTNGVCYSGDAFDIWGQGTMVTVSS
VL: SYVLTQPPSVSVAPGQTARITCGGNNIGSKNVHWYQQKPGQAPVLVVYDDSDRPSGIPEQFSGSNSGNTATLTISRVEAGDEADYYCQVWDSSSDHLVFGGGTKLTVL

ADCC EC50 [1]: 4.6 nM
B5: AB-010141 (antibody, mouse IgG2a, V domains shown)
VH: QVQLQQWGAGLLKPSETLSLTCAVYGGSFSGYYWSWIRQPPGKGLEWIGEVNHRGSINYNNYNPSLKSRVTISVDTSKNQFSLKLTSVTAADTAVYYCAKPLRPHCTNGVCYSGDAFDIWGQGTMVTVAS
VL: SYVLTQPPSVSVAPGQTARITCGGNNIGSKNVHWYQQKPGQAPVLVVYDDSDRPSGIPEQFSGSNSGNTATLTISRVEAGDEADYYCQVWDSSSDHLVFGGGTKLTVL

ADCC EC50 [1]: 45 nM
B6: AB-010148 (antibody, mouse IgG2a, V domains shown)
VH: QVQLQQWGAGLLKPSETLSLTCAVYGGSFSDYYWSWIRQPPGKGLEWIGEINHRGSINYNNYNPSLKSRVTISVDTSKNQFSLKLSSVTAADTAVYYCAKPLRPHCTNGVCYSGDAFDIWGQGTMVTVAS
VL: SYVLTQPPSVSVAPGQTARITCGGNNIGSKNVHWYQQKPGQAPVLVVYDDSDRPSGIPEQFSGSNSGNTATLTISRVEAGDEADYYCQVWDSSSDHLVFGGGTKLTVL

ADCC EC50 [1]: 33.3 nM
B7: AB-010151 (antibody, mouse IgG2a, V domains shown)
VH: QVQLQQWGAGLLKPSETLSLTCAVYGGSFSDYYWSWIRQPPGKGLEWIGEINHRGSINYNNYNPSLKSRVTISVDTSKNQFSLKLSSVTAADTAVYYCAKPLRPHCTNGVCYSGDAFDIWGQGTMVTVSS
VL: SYVLTQPPSVSVAPGQTARITCGGNNIGSKNVHWYQQKPGQAPVLVVYDDSDRPSGIPEQFSGSNSGNTATLTISRVEAGDEADYYCQVWDSSSDHLVFGGGTKLTVL

Flow Delta activity (MedFI) [2]: 29500 MedFI | ADCC Delta activity (%), A549 [3]: 1.31% | ADCP Delta activity (%), A549 [3]: 12.8%
B8: AB-009808 (antibody, mouse IgG2a, V domains shown)
VH: QVQLQQWGAGLLKPSETLSLTCAVYGGSFSDYYWSWIRQPPGKGLEWIGEINHSGSTNYNPSLKSRVTISVDPSKNQFSLKLTSVTAADTAVYYCAKPFRPHCTNGVCYSGDAFDIWGQGTMVTVSS
VL: SYVLTQPPSVSVAPGQTARITCGGNNIGSKNVHWYQQKPGQAPVLVVYDDSDRPSGIPEQFSGSNSGNTATLTISRVEAGDEADYYCQVWDSSSDHLVFGGGTKLTVL

ADCC EC50 [1]: 35.8 nM
B9: AB-010144 (antibody, mouse IgG2a, V domains shown)
VH: QVQLQQWGAGLLKPSETLSLTCAVYGGSFSDYYWSWIRQPPGKGLEWIGEINHRGSINYNNYNPSLKSRVTISVDTSKNQFSLKLTSVTAADTAVYYCAKPLRPHCTNGVCYSGDAFDIWGQGTMVTVAS
VL: SYVLTQPPSVSVAPGQTARITCGGNNIGSKNVHWYQQKPGQAPVLVVYDDSDRPSGIPEQFSGSNSGNTATLTISRVEAGDEADYYCQVWDSSSDHLVFGGGTKLTVL

ADCC EC50 [1]: 65.9 nM
B10: AB-010150 (antibody, mouse IgG2a, V domains shown)
VH: QVQLQQWGAGLLKPSETLSLTCAVYGGSFSDYYWSWIRQPPGKGLEWIGEVNHRGSINYNNYNPSLKSRVTISVDTSKNQFSLKLSSVTAADTAVYYCAKPLRPHCTNGVCYSGDAFDIWGQGTMVTVSS
VL: SYVLTQPPSVSVAPGQTARITCGGNNIGSKNVHWYQQKPGQAPVLVVYDDSDRPSGIPEQFSGSNSGNTATLTISRVEAGDEADYYCQVWDSSSDHLVFGGGTKLTVL

Flow Delta activity (MedFI) [2]: 12700 MedFI | ADCC Delta activity (%), A549 [3]: 0.4% | ADCP Delta activity (%), A549 [3]: 11.5%
B11: AB-009807 (antibody, mouse IgG2a, V domains shown)
VH: QVQLQQWGAGLLKPSETLSLTCAVYGGSFNDYYWSWIRQPPGKGLEWIGEVNHSGSTSYNPSLKSRVTISVDTSKNQFSLKLSSVTAADTAVYYCAKPFRPHCTNGVCYSGDAFDIWGQGTMVTVSS
VL: SYVLTQPPSVSVAPGQTARITCGGNNIGSKNVHWYQQKPGQAPALVVYDDSDRPSGIPEQFSGSNSGNTATLTISRVEAGDEADYYCQVWDSSSDHLVFGGGTKLTVL

EC50 (read off the curve) [2]: ~20 nM | Flow Delta activity (MedFI) [2]: 231000 MedFI | ADCC Delta activity (%), A549 [3]: 14.5% | ADCP Delta activity (%), A549 [3]: 17.9%
B12: AB-009806 (antibody, mouse IgG2a, V domains shown)
VH: QVQLQQWGAGLLKPSETLSLTCAVYGGSFSDYYWSWIRQPPGKGLEWIGEINHSGSTNYNPSLKSRVTISVDPSKNQFSLKLTSVTAADTAVYYCAKPFRPHCTNGVCYSGDAFDIWGQGTMVTVSS
VL: SYVLTQPPSVSVAPGQTARITCGGNNIGTKNVHWYQQKPGQAPVLVVYDDSDRPSGIPEQFSGSNSGNTATLTISRVEAGDEADYYCQVWDSSSDHLVFGGGTKLTVL

ADCC Delta, A549 cells [4]: 39.9 | ADCC EC50 (nM), A549 cells [4]: 26 nM | EC50 [5]: 6.8 nM | Flow Delta [5]: 578000
B13: AB-009813 (antibody, mouse IgG2a, V domains shown)
VH: QVQLQQWGAGLLKPSETLSLTCAVYGGSFSDYYWSWIRQPPGKGLEWIGEVNHAGSINYNNYNPSLKSRVTISVDPSKNQFSLKLTSVTAADTAVYYCAKPLRPHCTNGVCYSGDAFDIWGQGTMVTVAS
VL: SYVLTQPPSVSVAPGQTARITCGGNNIGSKNVHWYQQKPGQAPVLVVYDDSDRPSGIPEQFSGSNSGNTATLTISRVEAGDEADYYCQVWDSSSDHLVFGGGTKLTVL

Flow Delta activity (MedFI) [2]: 75100 MedFI | ADCC Delta activity (%), A549 [3]: 5.06% | ADCP Delta activity (%), A549 [3]: 17.3%
B14: AB-009805 (antibody, mouse IgG2a, V domains shown)
VH: QVQLQQWGAGLLKPSETLSLTCAVYGGSLSDYHWSWIRQPPGKGLEWIGEINHSGSTNYNPSLKSRVTISVDTSKNQFSLKLSSVSAADTAVYYCAKPFRPHCTNGVCHSGDAFDIWGQGTMATVSS
VL: SYVLTQPPSVSVAPGQTARITCGGNNIGSKNVHWYQQKPGQAPVLVVYDDSDRPSGIPEQFSGSNSGNTATLTISRVEAGDEADYYCQVWDSSSDHLVFGGGTKLTVL

ADCC Delta, A549 cells [4]: 0 | Flow Delta [5]: 0 | binding result [5]: no binding (tested: tested up to 1 µM)
B15: AB-009817 (antibody, mouse IgG2a, V domains shown)
VH: QVQLQQWGAGLLKPSETLSLTCAVYGGSFSDYYWSWIRQPPGKGLEWIGEVNHRGSINYNNYNPSLKSRVTISVDPSKNQFSLKLTSVTAADTAVYYCAKPLRPHCTNAVCYSGDAFDIWGQGTMVTVAS
VL: SYVLTQPPSVSVAPGQTARITCGGNNIGSKNVHWYQQKPGQAPVLVVYDDSDRPSGIPEQFSGSNSGNTATLTISRVEAGDEADYYCQVWDSSSDHLVFGGGTKLTVL

ADCC Delta, A549 cells [4]: 36 | ADCC EC50 (nM), A549 cells [4]: 62.8 nM | EC50 [5]: 11.5 nM | Flow Delta [5]: 407000
B16: AB-009814 (antibody, mouse IgG2a, V domains shown)
VH: QVQLQQWGAGLLKPSETLSLTCAVYGGSFSDYYWSWIRQPPGKGLEWIGEVNHRGSINYNPSLKSRVTISVDPSKNQFSLKLTSVTAADTAVYYCAKPLRPHCTNGVCYSGDAFDIWGQGTMVTVAS
VL: SYVLTQPPSVSVAPGQTARITCGGNNIGSKNVHWYQQKPGQAPVLVVYDDSDRPSGIPEQFSGSNSGNTATLTISRVEAGDEADYYCQVWDSSSDHLVFGGGTKLTVL

ADCC Delta, A549 cells [4]: 41.1 | ADCC EC50 (nM), A549 cells [4]: 51 nM | EC50 [5]: 9.6 nM | Flow Delta [5]: 568000
B17: AB-009812 (antibody, mouse IgG2a, V domains shown)
VH: QVQLQQWGAGLLKPSETLSLTCAVYGGSFSDYYWSWIRQPPGKGLEWIGEVNHSGSINYNNYNPSLKSRVTISVDPSKNQFSLKLTSVTAADTAVYYCAKPLRPHCTNGVCYSGDAFDIWGQGTMVTVAS
VL: SYVLTQPPSVSVAPGQTARITCGGNNIGSKNVHWYQQKPGQAPVLVVYDDSDRPSGIPEQFSGSNSGNTATLTISRVEAGDEADYYCQVWDSSSDHLVFGGGTKLTVL

ADCC Delta, A549 cells [4]: 58 | ADCC EC50 (nM), A549 cells [4]: 12.5 nM | EC50 [5]: 5.5 nM | Flow Delta [5]: 670000
B18: AB-009816 (antibody, mouse IgG2a, V domains shown)
VH: QVQLQQWGAGLLKPSETLSLTCAVYGGSFSDYYWSWIRQPPGKGLEWIGEVNHRGSINYNNYNPSLKSRVTISVDASKNQFSLKLTSVTAADTAVYYCAKPLRPHCTNGVCYSGDAFDIWGQGTMVTVAS
VL: SYVLTQPPSVSVAPGQTARITCGGNNIGSKNVHWYQQKPGQAPVLVVYDDSDRPSGIPEQFSGSNSGNTATLTISRVEAGDEADYYCQVWDSSSDHLVFGGGTKLTVL
